Publication PMC3507880, “Rationale-Based Engineering of a Potent Long-Acting FGF21 Analog for the Treatment of Type 2 Diabetes” (PLoS ONE, 2012)

T1: human βKlotho (human, UniProt Q86Z14 1-996)
T1 sequence (looked up): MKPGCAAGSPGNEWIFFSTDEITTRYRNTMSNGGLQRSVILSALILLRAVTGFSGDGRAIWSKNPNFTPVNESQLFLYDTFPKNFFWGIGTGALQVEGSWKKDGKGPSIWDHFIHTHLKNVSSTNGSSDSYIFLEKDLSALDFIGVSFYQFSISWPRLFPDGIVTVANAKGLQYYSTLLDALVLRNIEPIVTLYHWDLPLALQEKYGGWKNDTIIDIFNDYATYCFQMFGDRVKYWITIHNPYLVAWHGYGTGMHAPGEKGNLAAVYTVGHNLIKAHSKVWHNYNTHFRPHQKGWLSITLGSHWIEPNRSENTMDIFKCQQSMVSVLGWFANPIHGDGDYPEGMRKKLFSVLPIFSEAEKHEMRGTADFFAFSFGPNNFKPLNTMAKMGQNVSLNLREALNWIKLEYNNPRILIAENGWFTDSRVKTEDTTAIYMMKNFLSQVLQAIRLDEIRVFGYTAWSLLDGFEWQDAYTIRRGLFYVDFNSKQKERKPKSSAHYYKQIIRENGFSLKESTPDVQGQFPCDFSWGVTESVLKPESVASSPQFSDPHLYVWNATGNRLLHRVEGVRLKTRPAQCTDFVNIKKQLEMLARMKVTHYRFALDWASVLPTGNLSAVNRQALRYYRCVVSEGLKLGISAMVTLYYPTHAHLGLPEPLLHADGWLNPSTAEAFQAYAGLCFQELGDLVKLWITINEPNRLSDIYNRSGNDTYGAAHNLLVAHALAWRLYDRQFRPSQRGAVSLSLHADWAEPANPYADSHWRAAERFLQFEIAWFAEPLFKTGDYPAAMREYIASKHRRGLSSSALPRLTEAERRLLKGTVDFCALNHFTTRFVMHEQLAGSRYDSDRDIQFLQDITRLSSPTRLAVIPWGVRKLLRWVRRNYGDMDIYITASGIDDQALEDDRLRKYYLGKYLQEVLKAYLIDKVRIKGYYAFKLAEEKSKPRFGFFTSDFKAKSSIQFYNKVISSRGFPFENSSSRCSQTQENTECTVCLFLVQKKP

B1: Fc-FGF21(RG) (protein)
chain: HPIPDSSPLLQFGGQVRQRYLYTDDAQQTEAHLEIREDGTVGGAADQSPESLLQLKALKPGVIQILGVKTSRFLCQRPDGALYGSLHFDPEACSFRERLLEDGYNVYQSEAHGLPLHLPGNKSPHRDPAPRGPARFLPLPGLPPALPEPPGILAPQPPDVGSSDPLSMVGGSQGRSPSYAS
B2: Fc-FGF21 (N-terminal Fc fusion of human mature FGF21, wild type) (Fc fusion, UniProt Q9NSA1 29-209, looked up)
chain: HPIPDSSPLLQFGGQVRQRYLYTDDAQQTEAHLEIREDGTVGGAADQSPESLLQLKALKPGVIQILGVKTSRFLCQRPDGALYGSLHFDPEACSFRELLLEDGYNVYQSEAHGLPLHLPGNKSPHRDPAPRGPARFLPLPGLPPALPEPPGILAPQPPDVGSSDPLSMVGPSQGRSPSYAS
B3: wild type human mature FGF21 (protein)
chain: HPIPDSSPLLQFGGQVRQRYLYTDDAQQTEAHLEIREDGTVGGAADQSPESLLQLKALKPGVIQILGVKTSRFLCQRPDGALYGSLHFDPEACSFRELLLEDGYNVYQSEAHGLPLHLPGNKSPHRDPAPRGPARFLPLPGLPPALPEPPGILAPQPPDVGSSDPLSMVGPSQGRSPSYAS

Assays:
Q9NSA1 = assay: SEC; SEC-HPLC (Bio-Sil SEC-250, 2x PBS with 2% isopropyl alcohol); 65 mg/ml in 10 mM potassium phosphate, 5% sorbitol, pH 8.0; stored at 25°C or 4°C for 2 to 9 days; high molecular weight species as % of total
human βKlotho = target: T1, human βKlotho; assay: cell-based or functional assay

| Binder | aggregates, percent of total, over 9 days (Q9NSA1) | Elk1-dependent luciferase reporter in 293T cells stably overexpressing human βKlotho or CHO cells overexpressing human βKlotho and human FGFR1c; maximal activity relative to native FGF21 (human βKlotho) [%] | high molecular aggregates, percent of total, day 5 (Q9NSA1) |
| --- | --- | --- | --- |
| B1 | the amount of aggregates remained below 3% at all tested conditions |  |  |
| B2 |  | ~80 | the high molecular aggregates accounted for 50% and 25% of total native FGF21 and Fc-FGF21, respectively |
| B3 |  |  | the high molecular aggregates accounted for 50% and 25% of total native FGF21 and Fc-FGF21, respectively |
